Our source for the self-cleavage values is the RNAGym collection of RNA variant scans (doi:10.7554/elife.80360).

To fix the notation:
B1: Hairpin Ribozyme (parent)
chain: GUCCUCUUUCACGUGCGCGUGAAAGAGAGAAGUGAACCAGAGAAACACACGUUGUGGUAUAUUACCUGGUA

Variants of B1 are the subject of this data set. Description: self-cleavage, relative activity (ratio to wild type); higher = more cleavage; co-transcriptional.
Regarding GUCCUCUUUAACGUUCGCGUGAAAGAGAGAAGUGAACCAGAGAAACACACGUUGUGGUAUAUUACCUGGUA [C10A G15U], the self-cleavage came to 0.871. The figure for GUCCUCUUUAACGUGCGCGUGAAAGAGAGAAGUGACCCAGAGAAACACACGUUGUGGUAUAUUACCUGGUA [C10A A36C] is 0.528; for GUCCUCUUUAAUGUGCGCGUGAAAGAGAGAAGUGAACCAGAGAAACACACGUUGUGGUAUAUUACCUGGUA [C10A C12U] it is 0.452. As for GUCCUCUUUAAGGUGCGCGUGAAAGAGAGAAGUGAACCAGAGAAACACACGUUGUGGUAUAUUACCUGGUA [C10A C12G], the self-cleavage stood at 0.556. As for GUCCUCUUUAACGUGCGCGUGAAAGAGAGAAGUGAACCAGAGAAACACACGUUGUGGUAUAUUAUCUGGUA [C10A C65U], the self-cleavage stood at 0.274.

Take GUCCUCUUUAACGUGCGCGUGAAAGAGAGAAGUGAACCAGAGAAACAUACGUUGUGGUAUAUUACCUGGUA [C10A C48U]: the self-cleavage was 0.0572. For the variant GUCCUCUUUAACGUGCGCGUGAAAGAGAGAAGUGAACCAGAGAAACAAACGUUGUGGUAUAUUACCUGGUA [C10A C48A], the self-cleavage came to 0.102. On to GUCCUCUUUAACGUGCGCGUGAAAGAGAGAAGUGAACCAGAGAAACAGACGUUGUGGUAUAUUACCUGGUA [C10A C48G], for which the self-cleavage was 0.157. The figure for GUCCUCUUUAACGUGCGCGUGAAGGAGAGAAGUGAACCAGAGAAACACACGUUGUGGUAUAUUACCUGGUA [C10A A24G] is 0.57.

Take GUCCUCUUUAACGUGCGCGUGAAUGAGAGAAGUGAACCAGAGAAACACACGUUGUGGUAUAUUACCUGGUA [C10A A24U]: the self-cleavage is 0.584. Turning to GUCCUCUUUAACGUGCGCGUGAAAGAGAGAAGUGAAGCAGAGAAACACACGUUGUGGUAUAUUACCUGGUA [C10A C37G], the self-cleavage amounted to 0.266. Regarding GUCCUCUUUAACGUGCGCGUGAAAGAGAGAAGUGAAUCAGAGAAACACACGUUGUGGUAUAUUACCUGGUA [C10A C37U], the self-cleavage is 0.437.

For GUCCUCUUUAACGUGCGCGUGAAAGAGAGAAGUGAACCAGAGAAACACCCGUUGUGGUAUAUUACCUGGUA [C10A A49C], the self-cleavage amounted to 0.223.

Regarding GUCCUCUUUAACGUGCGCGUGAAAGAGAGAAGUGAACCAGAGAAACACACGUUGUGGUAUUUUACCUGGUA [C10A A61U], the self-cleavage was determined as 0.194. For the variant GUCCUCUUUAACGUGCGCGUGAAAGAGAGAAGUGAACCAGAGAAACACACGUUGUGGUAUCUUACCUGGUA [C10A A61C], the self-cleavage was 0.18. As to GUCCUCUUUAACGUGCACGUGAAAGAGAGAAGUGAACCAGAGAAACACACGUUGUGGUAUAUUACCUGGUA [C10A G17A], the self-cleavage came out at 0.622. GUCCUCUUUAACGUGCGCGUGAAAGCGAGAAGUGAACCAGAGAAACACACGUUGUGGUAUAUUACCUGGUA [C10A A26C]: the self-cleavage came to 0.297. Take GUCCUCUUUAACGUGCGCGUGAAAGUGAGAAGUGAACCAGAGAAACACACGUUGUGGUAUAUUACCUGGUA [C10A A26U]: the self-cleavage came to 0.461. For GUCCUCUUUAACGUGCGCGUGAAAGAGAGAAGUGAACCAGAGAAGCACACGUUGUGGUAUAUUACCUGGUA [C10A A45G], the self-cleavage stood at 0.138. As to GUCCUCUUUAACUUGCGCGUGAAAGAGAGAAGUGAACCAGAGAAACACACGUUGUGGUAUAUUACCUGGUA [C10A G13U], the self-cleavage was determined as 0.425. Take GUCCUCUUUAACGUGCGCGUGAAAGAGAGAAGUGAACCAGAGAAACACACGUUGUGGUAUAUUACCUGGUU [C10A A71U]: the self-cleavage came out at 0.557. Take GUCCUCUUUAACGUGUGCGUGAAAGAGAGAAGUGAACCAGAGAAACACACGUUGUGGUAUAUUACCUGGUA [C10A C16U]: the self-cleavage turned out to be 0.762. Consider GUCCUCUUUAACGUGCGCGUGAAAGAGAGAAGUGAACAAGAGAAACACACGUUGUGGUAUAUUACCUGGUA [C10A C38A], for which the self-cleavage amounted to 0.171.

As to GUCCUCUUUAACGUGCGCGUGAAAGAGAGAAGUGAACGAGAGAAACACACGUUGUGGUAUAUUACCUGGUA [C10A C38G], the self-cleavage was 0.196.

On to GUCCUCUUUAACGUGCGCGUGAAAGAGAGAAGUGAACCAGAGAAACACACGUUGUGGUUUAUUACCUGGUA [C10A A59U], for which the self-cleavage is 0.234. For the variant GUCCUCUUUAACGUGCGCGUGAAAGAGAGAAGUGAACCAGAGAAACUCACGUUGUGGUAUAUUACCUGGUA [C10A A47U], the self-cleavage was 0.177. Consider GUCCUCUUUAACGUGCGCGUGAAAGAGAGAAGUGAACCUGAGAAACACACGUUGUGGUAUAUUACCUGGUA [C10A A39U], for which the self-cleavage is 0.262. To GUCCUCUUUAACGUGCGCGUGAAAGAGAGAAGUGAACCGGAGAAACACACGUUGUGGUAUAUUACCUGGUA [C10A A39G] belongs 0.224; to GUCCUCUUUAACGUGCGCGUGAAAGAGAGAAGUGAACCAGAGUAACACACGUUGUGGUAUAUUACCUGGUA [C10A A43U], 0.133; to GUCCUCUUUAACGUGCGCGUGAAAGAGAGAAGUGUACCAGAGAAACACACGUUGUGGUAUAUUACCUGGUA [C10A A35U], 0.56. To GUCCUCUUUAACGUGCGCGUGAAAGAGAGAAGUGGACCAGAGAAACACACGUUGUGGUAUAUUACCUGGUA [C10A A35G] belongs 0.63; to GUCCUCUUUAACGUGCGCGUGAAAGAGAGAAGUGAACCAGAGAAACACACGUUGUGGUAUAUUUCCUGGUA [C10A A64U], 0.121. To GUCCUCUUUAACGUGCGCGUUAAAGAGAGAAGUGAACCAGAGAAACACACGUUGUGGUAUAUUACCUGGUA [C10A G21U] belongs 0.939; to GUCCUCUUUAACGUGCGCGUGAAAGAGAGAAGUGAACCAGAGAAACACAAGUUGUGGUAUAUUACCUGGUA [C10A C50A], 0.255; to GUCCUCUUUAACGUGCGCGUGAAAGAGAGAAGUGAACCAGAGAAACACAGGUUGUGGUAUAUUACCUGGUA [C10A C50G], 0.352. With GUCCUCUUUAACGUGCGCGUGAAAGAAAGAAGUGAACCAGAGAAACACACGUUGUGGUAUAUUACCUGGUA [C10A G27A], the self-cleavage amounted to 0.35.

On to GUCCUCUUUAACGUGCGCGUGAAAGAUAGAAGUGAACCAGAGAAACACACGUUGUGGUAUAUUACCUGGUA [C10A G27U], for which the self-cleavage was 0.233. To GUCCUCUUUAACGUGCGCGUGAAAGAGCGAAGUGAACCAGAGAAACACACGUUGUGGUAUAUUACCUGGUA [C10A A28C] belongs 0.251.
